These results are taken from US20210171601A1 (Memorial Sloan Kettering, published 2021).

Where no end group is shown, it is not given here.

For assay [1], the target named is T1, leucine zipper-based CAR (ZipR-CAR), e.g. EE12RR345L:CD28zeta.
T1 construct: Used where the text speaks of 'the ZipR-CAR' without naming the spacer; Expressed on T cells; also called leucine zipper receptor-based CAR; EE-CAR
Kind of assay: co-expression in T cells (FIG. 8).

Assay [2] has as its target T2, membrane-bound leucine zipper (EE12RR345L).
T2 construct: Expressed on the surface of the transduced cell; not shown: spacer, transmembrane and any intracellular part of the construct of this experiment are not specified
Briefly: both co-transduced into the same cell; affinity tag detected on the cell surface by flow cytometry. A general note: In flow cytometry, cells or beads pass a laser one at a time.

B1: IL-3 zipperkine (IL-3 cytokine with C-terminal FLAG-tag and RR12EE345L leucine zipper) (ligand)
chain: ASISGRDTHRLTRTLNCSSIVKEIIGKLPEPELKTDDEGPSLRNKSFRRVNLSKFVESQGEVDPEDRYVIKSNLQKLNCCLPTSANDSALPGVFIRDLDDFRKKLRFYMVHLNDLETVLTSRPPQPASGSVSPNRGTVECGSGDYKDDDDKLEIRAAFLRQRNTALRTEVAELEQEVQRLENEVSQYETRYGPLGGGK
On to B1, for which the binding result in assay [1] is reported as “binds”.

B2: RR12EE345L leucine zipper with a linked affinity tag (peptide, not shown: small tags and cut ends)
chain: LEIRAAFLRQRNTALRTEVAELEQEVQRLENEVSQYETRYGPLGGGK
modifications: not fully specified (N-terminus)
notes: Secreted tagged zipper of the two-vector sorting system
In the case of B2, the binding result in assay [2] was “binds”.
